Values of other authors as cited in patent US11608532B2, “Precision medicine for treating and preventing suicidality” (Indiana University Research and Technology Corporation, priority 2017, dated 2023).
Like-named read-outs stand apart in the source and are kept apart here.

Tested on: individual top biomarkers for suicidality

B1: certolizumab (antibody, chains of the INN, looked up, V domains shown)
VH: EVQLVESGGGLVQPGGSLRLSCAASGYVFTDYGMNWVRQAPGKGLEWMGWINTYIGEPIYADSVKGRFTFSLDTSKSTAYLQMNSLRAEDTAVYYCARGYRSYAMDYWGQGTLVTVSS
VL: DIQMTQSPSSLSASVGDRVTITCKASQNVGTNVAWYQQKPGKAPKALIYSASFLYSGVPYRFSGSGSGTDFTLTISSLQPEDFATYYCQQYNIYPLTFGQGTKVEIK
- TNF modulated by drug in opposite direction to suicide (D. Top Biomarkers in Bipolar Disorder, direction of change in suicidality (I) DE/1, (I) AP/1): certolizumab,

B2: siltuximab (antibody, chains of the INN, looked up, V domains shown)
VH: EVQLVESGGKLLKPGGSLKLSCAASGFTFSSFAMSWFRQSPEKRLEWVAEISSGGSYTYYPDTVTGRFTISRDNAKNTLYLEMSSLRSEDTAMYYCARGLWGYYALDYWGQGTSVTVSS
VL: QIVLIQSPAIMSASPGEKVTMTCSASSSVSYMYWYQQKPGSSPRLLIYDTSNLASGVPVRFSGSGSGTSYSLTISRMEAEDAATYYCQQWSGYPYTFGGGTKLEIK
- IL6 modulated by drug in opposite direction to suicide (B. Top Biomarkers in Males, direction of change in suicidality I, AP/2): siltuximab

B3: Siltuximab (antibody, chains of the INN, looked up, V domains shown)
VH: EVQLVESGGKLLKPGGSLKLSCAASGFTFSSFAMSWFRQSPEKRLEWVAEISSGGSYTYYPDTVTGRFTISRDNAKNTLYLEMSSLRSEDTAMYYCARGLWGYYALDYWGQGTSVTVSS
VL: QIVLIQSPAIMSASPGEKVTMTCSASSSVSYMYWYQQKPGSSPRLLIYDTSNLASGVPVRFSGSGSGTSYSLTISRMEAEDAATYYCQQWSGYPYTFGGGTKLEIK
- Step 6 Drugs that Modulate the Biomarker in Opposite Direction to Suicide (biomarker IL6 (interleukin 6)): Siltuximab

B4: CAT-354 (antibody, chains of the INN, looked up, V domains shown)
VH: QVQLVQSGAEVKKPGASVKVSCKASGYTFTNYGLSWVRQAPGQGLEWMGWISANNGDTNYGQEFQGRVTMTTDTSTSTAYMELRSLRSDDTAVYYCARDSSSSWARWFFDLWGRGTLVTVSS
VL: SYVLTQPPSVSVAPGKTARITCGGNIIGSKLVHWYQQKPGQAPVLVIYDDGDRPSGIPERFSGSNSGNTATLTISRVEAGDEADYYCQVWDTGSDPVVFGGGTKLTVL
- Step 6 Drugs that Modulate the Biomarker in Opposite Direction to Suicide (biomarker IL13 (interleukin 13)): CAT-354
